PMC5397143

Target: RctB, wild-type full-length (residues 1–658) (Vibrio cholerae)
Assay: native MS

“RctB, wild-type full-length (residues 1–658) (natural protein)” gave a stoichiometry N of 2.
